T1: RB1 substrate domain mutant K889A
T1 chain: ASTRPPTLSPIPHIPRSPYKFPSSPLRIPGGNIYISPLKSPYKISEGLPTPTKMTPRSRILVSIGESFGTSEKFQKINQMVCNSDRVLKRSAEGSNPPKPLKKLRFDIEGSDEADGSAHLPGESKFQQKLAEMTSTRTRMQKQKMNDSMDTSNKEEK

T2: RB1 substrate domain mutant K824A
T2 chain: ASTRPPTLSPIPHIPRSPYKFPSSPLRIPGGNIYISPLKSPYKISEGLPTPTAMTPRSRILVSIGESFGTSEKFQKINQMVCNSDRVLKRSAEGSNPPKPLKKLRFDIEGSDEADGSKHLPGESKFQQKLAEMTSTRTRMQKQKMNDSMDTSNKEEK

T3: RB1 double mutant K814A/K824A
T3 chain: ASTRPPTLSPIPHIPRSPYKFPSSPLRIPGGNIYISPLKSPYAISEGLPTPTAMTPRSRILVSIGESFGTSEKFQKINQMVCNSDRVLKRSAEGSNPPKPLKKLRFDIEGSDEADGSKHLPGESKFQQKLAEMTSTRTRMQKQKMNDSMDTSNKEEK

T4: RB1 mutant K814A
T4 chain: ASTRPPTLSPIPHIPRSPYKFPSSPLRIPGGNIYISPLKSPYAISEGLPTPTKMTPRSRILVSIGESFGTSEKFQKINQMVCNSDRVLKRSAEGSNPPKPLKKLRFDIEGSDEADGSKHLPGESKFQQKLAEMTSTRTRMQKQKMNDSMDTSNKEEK

T5: RB1 double mutant K791A/K824A
T5 chain: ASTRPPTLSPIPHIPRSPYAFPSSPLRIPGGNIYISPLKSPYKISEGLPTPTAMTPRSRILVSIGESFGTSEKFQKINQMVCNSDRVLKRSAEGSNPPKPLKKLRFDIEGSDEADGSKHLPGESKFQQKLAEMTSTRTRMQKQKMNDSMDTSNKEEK

T6: RB1 substrate domain mutant K896A
T6 chain: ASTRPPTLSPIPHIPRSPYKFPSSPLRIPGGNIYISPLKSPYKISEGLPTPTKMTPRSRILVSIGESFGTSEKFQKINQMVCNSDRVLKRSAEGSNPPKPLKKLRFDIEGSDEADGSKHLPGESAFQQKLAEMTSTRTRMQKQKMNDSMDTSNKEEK

T7: RB1 mutant K791A
T7 chain: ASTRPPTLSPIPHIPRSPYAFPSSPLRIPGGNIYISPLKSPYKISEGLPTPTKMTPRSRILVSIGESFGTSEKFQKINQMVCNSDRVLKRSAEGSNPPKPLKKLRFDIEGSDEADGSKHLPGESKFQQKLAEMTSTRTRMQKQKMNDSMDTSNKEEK

T8: Recombinant C-terminal region of RB1 (codons 769-921)
T8 chain: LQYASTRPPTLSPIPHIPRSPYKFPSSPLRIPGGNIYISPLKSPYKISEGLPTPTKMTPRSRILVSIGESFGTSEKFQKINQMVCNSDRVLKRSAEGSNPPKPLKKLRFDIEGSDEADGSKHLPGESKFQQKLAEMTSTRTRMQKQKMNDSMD

T9: full-length recombinant RB protein (3108, QED Bioscience)
T9 chain: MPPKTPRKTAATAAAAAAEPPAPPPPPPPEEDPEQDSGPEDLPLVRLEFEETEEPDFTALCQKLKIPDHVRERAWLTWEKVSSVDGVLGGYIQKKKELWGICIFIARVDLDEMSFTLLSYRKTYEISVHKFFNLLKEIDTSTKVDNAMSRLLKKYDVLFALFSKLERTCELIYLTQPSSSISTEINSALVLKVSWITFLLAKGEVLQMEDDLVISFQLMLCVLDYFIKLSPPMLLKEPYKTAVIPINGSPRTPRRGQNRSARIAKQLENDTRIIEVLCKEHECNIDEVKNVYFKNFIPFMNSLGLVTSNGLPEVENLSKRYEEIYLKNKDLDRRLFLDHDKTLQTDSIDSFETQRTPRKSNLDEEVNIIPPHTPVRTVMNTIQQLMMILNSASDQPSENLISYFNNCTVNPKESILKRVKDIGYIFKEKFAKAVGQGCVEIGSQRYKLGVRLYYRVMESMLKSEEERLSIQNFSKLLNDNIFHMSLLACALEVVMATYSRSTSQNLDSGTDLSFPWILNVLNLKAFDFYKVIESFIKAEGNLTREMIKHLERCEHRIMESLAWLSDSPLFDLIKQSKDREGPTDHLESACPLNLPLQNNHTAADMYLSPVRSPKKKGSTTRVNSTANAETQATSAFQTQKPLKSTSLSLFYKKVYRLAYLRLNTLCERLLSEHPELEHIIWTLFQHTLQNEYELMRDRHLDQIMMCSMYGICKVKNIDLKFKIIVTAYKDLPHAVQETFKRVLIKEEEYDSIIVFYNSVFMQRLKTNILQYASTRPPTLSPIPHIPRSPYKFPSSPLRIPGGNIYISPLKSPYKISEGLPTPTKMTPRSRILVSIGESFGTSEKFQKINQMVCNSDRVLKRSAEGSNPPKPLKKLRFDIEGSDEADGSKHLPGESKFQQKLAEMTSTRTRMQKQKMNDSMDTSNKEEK


Columns and labels:
[1] = biological target: T1, RB1 substrate domain mutant K889A
[2] = biological target: T2, RB1 substrate domain mutant K824A
[3] = biological target: T3, RB1 double mutant K814A/K824A
[4] = biological target: T4, RB1 mutant K814A
[5] = biological target: T5, RB1 double mutant K791A/K824A
[6] = biological target: T6, RB1 substrate domain mutant K896A
[7] = biological target: T7, RB1 mutant K791A
[8] = biological target: T8, Recombinant C-terminal region of RB1 …
[9] = biological target: recombinant histone H3
[10] = biological target: T9, full-length recombinant RB protein …
[11] = biological target: Recombinant full-length GST-p53 (wild-type p53), P04637
Sequence of Recombinant full-length GST-p53 (wild-type p53), P04637 (P04637 whole entry, looked up): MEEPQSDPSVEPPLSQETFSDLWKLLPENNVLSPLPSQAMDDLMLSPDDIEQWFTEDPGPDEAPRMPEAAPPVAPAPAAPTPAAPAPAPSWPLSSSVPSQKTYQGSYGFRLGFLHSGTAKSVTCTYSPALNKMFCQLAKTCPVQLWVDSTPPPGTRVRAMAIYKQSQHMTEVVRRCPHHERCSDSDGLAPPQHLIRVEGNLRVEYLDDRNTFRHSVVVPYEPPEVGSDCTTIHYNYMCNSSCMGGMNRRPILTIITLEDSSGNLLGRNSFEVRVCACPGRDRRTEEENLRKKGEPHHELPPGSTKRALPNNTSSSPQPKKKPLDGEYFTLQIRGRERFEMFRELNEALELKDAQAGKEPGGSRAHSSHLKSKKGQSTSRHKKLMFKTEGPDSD

Row | Protein | methylation by SMYD3 (autoradiography, liquid scintillation counter) [1] | methylation by SMYD3 (autoradiography, liquid scintillation counter) [2] | methylation by SMYD3 (fluorogram, liquid scintillation counter) [3] | methylation by SMYD3 (fluorogram, liquid scintillation counter) [4] | methylation by SMYD3 (fluorogram, liquid scintillation counter) [5] | methylation by SMYD3 (autoradiography, liquid scintillation counter) [6] | methylation by SMYD3 (fluorogram, liquid scintillation counter) [7] | incorporation of 3H-labeled methyl donor (liquid scintillation counter) [8] | methyltransferase (MTase) activity [9] | methylation of substrate (in vitro MTase assay) [10] | methylation of substrate (in vitro MTase assay with 3H-labeled SAM, PAGE and autoradiography) [8] | methylation of substrate (in vitro MTase assay with 3H-labeled SAM, PAGE and autoradiography) [11] | methylation of substrate (in vitro MTase assay with 3H-labeled SAM, PAGE and autoradiography) [9]
1 | Recombinant SMYD3 protein (prepared in Sf9 cells, Baculovirus system) (protein) MEPLKVEKFATANRGNGLRAVTPLRPGELLFRSDPLAYTVCKGSRGVVCDRCLLGKEKLMRCSQCRVAKYCSAKCQKKAWPDHKRECKCLKSCKPRYPPDSVRLLGRVVFKLMDGAPSESEKLYSFYDLESNINKLTEDKKEGLRQLVMTFQHFMREEIQDASQLPPAFDLFEAFAKVICNSFTICNAEMQEVGVGLYPSISLLNHSCDPNCSIVFNGPHLLLRAVRDIEVGEELTICYLDMLMTSEERRKQLRDQYCFECDCFRCQTQDKDADMLTGDEQVWKEVQESLKKIEELKAHWKWEQVLAMCQAIISSNSERLPDINIYQLKVLDCAMDACINLGLLEEALFYGTRTMEPYRIFFPGSHPVRGVQVMKVGKLQLHQGMFPQAMKNLRLAFDIMRVTHGREHSLIEDLILLLEECDANIRAS | the K889A and K896A mutants were methylated at similar levels by SMYD3 | methylation of K824A was significantly decreased | showed equivalent levels of methylation to the K824A protein | K791A and K814A, showed similar levels of methylation to wild type-RB1 | showed equivalent levels of methylation to the K824A protein | the K889A and K896A mutants were methylated at similar levels by SMYD3 | K791A and K814A, showed similar levels of methylation to wild type-RB1 | four to six fold higher amount of 3H-labeled methyl donor in the presence of SMYD3 than the absence of SMYD3 | a dose-dependent increase of MTase activity on both substrates |  |  |  | 
2 | Flag-tagged wild-type SMYD3 immunoprecipitated from 293T cells (p3XFLAG-CMV-SMYD3) (protein) MEPLKVEKFATANRGNGLRAVTPLRPGELLFRSDPLAYTVCKGSRGVVCDRCLLGKEKLMRCSQCRVAKYCSAKCQKKAWPDHKRECKCLKSCKPRYPPDSVRLLGRVVFKLMDGAPSESEKLYSFYDLESNINKLTEDKKEGLRQLVMTFQHFMREEIQDASQLPPAFDLFEAFAKVICNSFTICNAEMQEVGVGLYPSISLLNHSCDPNCSIVFNGPHLLLRAVRDIEVGEELTICYLDMLMTSEERRKQLRDQYCFECDCFRCQTQDKDADMLTGDEQVWKEVQESLKKIEELKAHWKWEQVLAMCQAIISSNSERLPDINIYQLKVLDCAMDACINLGLLEEALFYGTRTMEPYRIFFPGSHPVRGVQVMKVGKLQLHQGMFPQAMKNLRLAFDIMRVTHGREHSLIEDLILLLEECDANIRAS |  |  |  |  |  |  |  |  |  | SMYD3 methylated full length of RB1 | bands corresponding to methylated RB1 were also detected | no bands corresponding to methylated p53 were detected | bands corresponding methylated histone H3

Reference: patent US20090191181
